Experiments:
[1] = target: T1, chimeric C10orf54: first half of IgV mouse and remainder (including loop) human (construct CC8) (human/mouse chimera, UniProt Q9H7M9 33-311); assay: flow cytometry, transfected 293t cells, 2 ug/ml; stain = MFI >=20-fold over isotype control
T1 construct: also called C10orf54 Construct 8; mmabChsC10
T1 chain: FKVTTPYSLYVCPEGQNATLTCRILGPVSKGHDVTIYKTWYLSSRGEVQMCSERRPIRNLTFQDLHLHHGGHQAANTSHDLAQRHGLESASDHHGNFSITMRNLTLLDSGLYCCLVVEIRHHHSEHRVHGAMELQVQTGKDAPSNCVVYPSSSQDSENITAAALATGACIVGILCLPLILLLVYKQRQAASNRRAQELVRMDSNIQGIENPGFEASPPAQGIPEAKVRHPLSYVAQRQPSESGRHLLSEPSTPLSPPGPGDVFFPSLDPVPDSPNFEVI
Description: (§1) To investigate epitope diversity of the anti-human C10orf54 antibodies, 293t cells were transfected with 1 of 10 different C10orf54 expression constructs that co-express a fluorescent marker. Two days after transfection, cells were stripped from the tissue culture plate, stained with 2 μg/ml anti-human C10orf54 antibody , washed, stained with anti-mouse IgG-Fc Alexa Fluor 647 polyclonal antibody, washed, and stained with the viability dye 4′,6-Diamidino-2-Phenylindole, Dihydrochloride. Upon acquisition of 10,000 live events on a flow cytometer, live cells marked with the fluorescent marker were analyzed for the degree of staining by the anti-human C10orf54 antibody. When the median fluorescence intensity fold-change relative to an isotype control antibody was at least 20-fold, the antibody was considered to stain the C10orf54 expression construct in question.

[2] = target: T2, chimeric C10orf54: mouse with human loop (construct CC10) (human/mouse chimera, UniProt Q9D659 33-308 (mouse entry)); assay: as above
T2 construct: also called C10orf54 Construct 10; mmC10hsLOOP
T2 chain: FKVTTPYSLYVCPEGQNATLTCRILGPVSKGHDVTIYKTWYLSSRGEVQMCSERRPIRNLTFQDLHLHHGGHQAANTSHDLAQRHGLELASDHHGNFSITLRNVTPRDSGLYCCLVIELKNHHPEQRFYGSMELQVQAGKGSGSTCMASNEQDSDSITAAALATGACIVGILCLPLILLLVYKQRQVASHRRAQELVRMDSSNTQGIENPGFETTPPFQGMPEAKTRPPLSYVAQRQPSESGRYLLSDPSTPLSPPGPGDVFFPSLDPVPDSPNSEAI
Description: as §1

[3] = target: T3, full length cynomolgus monkey C10orf54 (construct CC4) (cynomolgus monkey, UniProt Q9H7M9 33-311 (human entry)); assay: as above
T3 construct: also called C10orf54 Construct 4
T3 chain: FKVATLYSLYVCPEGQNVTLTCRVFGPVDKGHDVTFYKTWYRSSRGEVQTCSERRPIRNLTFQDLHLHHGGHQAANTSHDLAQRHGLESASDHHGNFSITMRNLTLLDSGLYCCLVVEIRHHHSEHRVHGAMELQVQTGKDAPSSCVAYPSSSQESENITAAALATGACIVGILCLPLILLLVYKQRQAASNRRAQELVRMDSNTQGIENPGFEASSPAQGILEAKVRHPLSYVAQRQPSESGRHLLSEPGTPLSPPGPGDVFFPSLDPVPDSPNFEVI
Description: as §1

[4] = target: T4, chimeric C10orf54: human IgV with mouse STALK (construct CC5) (human/mouse chimera); assay: as above
T4 construct: also called C10orf54 Construct 5; hsIGVmmSTALK
T4 chain: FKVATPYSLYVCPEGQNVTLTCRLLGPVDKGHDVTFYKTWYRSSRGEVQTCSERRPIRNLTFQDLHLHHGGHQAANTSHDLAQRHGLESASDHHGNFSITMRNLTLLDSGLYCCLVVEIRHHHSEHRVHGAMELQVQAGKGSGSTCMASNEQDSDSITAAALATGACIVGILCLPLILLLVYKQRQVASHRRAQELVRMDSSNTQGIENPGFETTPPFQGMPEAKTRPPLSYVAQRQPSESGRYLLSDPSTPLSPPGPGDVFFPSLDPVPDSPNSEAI
Description: as §1

[5] = target: T5, C10orf54 (antigen of the KD values in Table 42) (human, UniProt Q9H7M9 33-311, limits assumed); assay: method and antigen form not stated
T5 sequence: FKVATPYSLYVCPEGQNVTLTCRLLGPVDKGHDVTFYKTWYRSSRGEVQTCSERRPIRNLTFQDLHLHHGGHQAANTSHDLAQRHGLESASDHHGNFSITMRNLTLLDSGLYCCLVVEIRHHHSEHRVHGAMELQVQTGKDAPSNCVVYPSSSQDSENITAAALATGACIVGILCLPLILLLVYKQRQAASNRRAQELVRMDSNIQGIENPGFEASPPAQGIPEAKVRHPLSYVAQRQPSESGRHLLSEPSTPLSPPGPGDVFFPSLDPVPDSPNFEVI

B1: murine monoclonal antibody 5B (antibody, V domains shown)
VH: QVQLQQSGAELVRPGVSVKISCKGSGYTFTDYGMHWVKQSHAKSLEWIGIIDTYYGDATYNQKFKGKATMTVDKSSSTAYMELARLTSEDSAIYYCARRAGNAMDYWGQGTSVTVSS
VL: NIVMTQTPKFLLVSAGDRVTITCKASQSVSNDVAWYQQKPGQSPKLLIYYASNRYTGVPDRFTGSGYGTDFTFTISTVQAEDLAVYFCQQDYSSPRTFGGGTKLEIK
notes: Mouse hybridoma antibody
B1: binds [1]; binds [2]; binds [3]. For the same binder, the binding result [4] was “binds” and the Kd [5] was 0.974 nM.

B2: murine monoclonal antibody 208A (antibody, V domains shown)
VH: QVQLQQSGAELVRPGVSVKISCKGSGYTFTDYGMHWVKQSHAKSLEWIGVIDTYYGDAGYNQKFKGKATMTVDKSSSTAYMELARLTSEDSAIYYCARRAGNAMDYWGQGTSVTVSS
VL: SIVMTQTPKFLLVSAGDRVTITCKASQSVSNDVAWYQQKPGQSPKLLIYYASNRYTGVPDRFTGSGYGTDFTFTISTVQAEDLAVYFCQQDYSSPRTFGGGTKLEIK
notes: Mouse hybridoma antibody
B2: binds [1]; binds [2]; binds [3]. For the same binder, the binding result [4] was “binds” and the Kd [5] was 2.48 nM.

B3: murine monoclonal antibody 146C (antibody, V domains shown)
VH: QVQLQQSGAELVRPGVSVKISCKGSGYTFTDYGMHWVKQSHAKSLEWIGLIDTYYGDATYNHKFKGKATMTVDKSSRTAYMELARLTSEDSAIYYCARRAGNAMDYWGQGTSVTASS
VL: NIAMTQTPKFLLVSAGDRVTITCKASQSVSNDIAWYQQKPGQSPRLLIYYASNRYTGVPDRFTGSGYGTDFTFTISTVQAEDLAVYFCQQDYSSPRTFGGGTKLEIK
notes: Mouse hybridoma antibody
B3: binds [1]; binds [2]; binds [3]. B3: binds [4].

B4: murine monoclonal antibody 128A (antibody, V domains shown)
VH: QVQLQQSGAELVRPGVSVKISCKGSGYTFTDYGMHWVKQSHAKSLEWIGLIDTYYGDATYNHKFKGKATMTVDKSSRTAYMELARLTSEDSAIYYCARRAGNAMDYWGQGTSVTASS
VL: NIAMTQTPKFLLVSAGDRVTITCKASQSVSNDIAWYQQKPGQSPRLLIYYASNRYTGVPDRFTGSGYGTDFTFTISTVQAEDLAVYFCQQDYSSPRTFGGGTKLEIK
notes: Mouse hybridoma antibody
B4: binds [1]; binds [2]; binds [3]. For the same binder, the binding result [4] was “binds” and the Kd [5] was 0.635 nM.

B5: murine monoclonal antibody 97A (antibody, V domains shown)
VH: QVQLQQSGAELVRPGVSVKISCKGSGYTFTDYGMHWVKQSHAKSLEWIGVIDTYYGDASNNQKFKGKATMTVDKSSSTAYMELARLTSEDSAIYYCARRAGNAMDYWGQGTSVTVSS
VL: SIVMTQTPKFLLVSAGDRVAITCKASQSVSNDVAWYQQKPGQSPKLLIYYASNRYTGVPDRFTGSGYGTDFTFTISTVQAEDLAVYFCQQDYGSPRTFGGGTKLEIK
notes: Mouse hybridoma antibody
B5 was tested, and the Kd [5] was 1.99 nM.

B6: murine monoclonal antibody 46A (antibody, V domains shown)
VH: QVQLQQAGGELVRPGVSVKISCKGSGYTFTDYGMHWVKQSHAKSLEWIGIINTYYGDATYNQKFKGKATMTVDKSSSTAYMELARLTSEDSAIYYCARRAGTAMDYWGQGTSVTVSS
VL: SIVMTQTPKFLLVSAGDRVTITCKASQSVSNDVAWYQQKPGQSPKLLIYYASNRYTGVPDRFTGSGYGTDFTFTISTVQAEDLAVYFCQQDYGSPRTFGGGTKLEIK
notes: Mouse hybridoma antibody
B6 was tested, and the binding result [1] was “binds”, the binding result [3] was “binds” and the Kd [5] was 1.88 nM.

B7: murine monoclonal antibody 53A (antibody, V domains shown)
VH: EVQLQQSGPELVKPGASVKMSCKASGYTFTSYFMHWVKQKPGQGLEWIGYIYPYNDGTKYNEKFKGKATLTSDKSSSTAYMELSSLTSEDSAVYYCARFDYDTLRYWGQGTTLTVSS
VL: DVVLTQTPLSLPVNIGDQASISCKSTKSLLNSDGFTYLDWYLQKPGQSPQLLIYLVSNRFSGVPDRFSGSGSGTDFTLKISRVEAEDLGVYYCFQSNYFPWTFGGGTKLEIK
notes: Mouse hybridoma antibody
B7: binds [1]; binds [3]; binds [4]. For the same binder, the Kd [5] was 0.321 nM.

B8: murine monoclonal antibody 259A (antibody, V domains shown)
VH: EVQLQQSGPELVKPGASVKMSCKASGYTFTSYFMHWVKQKPGQGLEWIGYIYPYNDGTKYNEKFKGKATLTSDKSSSTAYMDLSSLTSEDSAVYYCARFDYDTLRYWGQGTTLTVSS
VL: DVVLTQTPLSLPVNIGDQASISCKSTKSLLNSDGFTYLDWYLQKPGQSPQLLIYLISNRFSGVPDRFSGSGSGTDFTLKISRVEAEDLGVYYCFQSNYFPWTFGGGTKLEIK
notes: Mouse hybridoma antibody
B8: binds [1]; binds [3]; binds [4]. For the same binder, the Kd [5] was 0.266 nM.

B9: murine monoclonal antibody 215A (antibody, V domains shown)
VH: EVQLQQSGPELVKPGASMKISCKASGFSFTGYTMNWVKQSHGKNLEWIGLISPYNGGTSYNQKFKGKATLTVDKSSSTAYMELLSLTSEDSAVYYCARRAYGYAMDYWGQGTSVTVSS
VL: QIVLTQSPAIMSASPGEKVTMTCSASSSVSYMFWYQQKPGSSPRLLIYDTSNLASGVPLRFSGSGSGTSYSLTISRMEAEDAATYYCQQWSSYPFTFGSGTKLEIK
notes: Mouse hybridoma antibody
B9: binds [1]; binds [3]; binds [4]. The Kd [5] was 1.52 nM.

B10: murine monoclonal antibody 39A (antibody, V domains shown)
VH: QVQLQQSGAELMKPGASVKISCKATGYTFSSNWIEWVKQRPGHGLEWIGEILPGSGSTSYNEKFKGKATFTADTSSNTAYMQLSSLTSEDSAVYYCARWLLYYYAMDYWGQGTSVTVSS
VL: DVLMTQTPLSLPVSLGDPASISCRSSQSIVHNNGNTYLEWYLQKPGQSPKLLIYKVSNRFSGVPDRFSGSGSGTDFTLKISRVEAEDLGVYYCFQGSHVPYTFGGGTKLEIK
notes: Mouse hybridoma antibody
B10: binds [1]; binds [3]; binds [4]. It also gave a Kd [5] of 5.79 nM.

B11: murine monoclonal antibody 76E1 (antibody, V domains shown)
VH: EVQLLQSGPELEKPGASVKISCKASGYSFTGYNMNWVKQSNGKSLEWIGNIDPYYDYTSYNLKFKDKATLTVDKSSSTAYMQLKSLTSEDSAVYYCATSTMITPFDYWGQGTTLTVSS
VL: DVLMTQTPLSLPVSLGDQASISCRSSQSIVHSNGNTYLEWYLQKPGQSPKLLIYKVSNRFSGVPDRFSGSGSGTDFTLKINRVEAEDLGVYYCFQGSHVPWTFGGGTKLEIK
notes: Mouse hybridoma antibody
B11: binds [1]; binds [3]; binds [4]. It also gave a Kd [5] of 10.1 nM.

B12: murine monoclonal antibody 124A (antibody, V domains shown)
VH: QVQLQQSGAELMKPGASVKISCKATGYTFSSNWIEWVKQRPGHGLEWMGEILPGSGSTSYNEKFKGKATFTADTSSNTAYMQLSSLTSEDSAVYYCARWLLYYYAMDFWGQGTSVTVSS
VL: DVLMTQTPLSLPVSLGDQASISCRSSQSIVHNNGNTYLEWYLQKPGQSPKLLIYKVSNRFSGVPDRFSGSGSGTDFTLKISRVEAEDLGVYYCFQGSHVPYTFGGGTKLEIK
notes: Mouse hybridoma antibody
B12: binds [1]; binds [3]; binds [4]. For the same binder, the Kd [5] was 3.61 nM.
